B1: SELEX consensus hybrid (CDNA/CRNA) (DNA:RNA)
DNA: TCACTGGTCGGTGGGAATCCTC
RNA: GAGGAUUCCCACCGACCAGUGA
B2: literature ZfQQR site hybrid (LDNA/LRNA) (DNA:RNA)
DNA: TCACTGGGGAAGAAGAATCCTC
RNA: GAGGAUUCUUCUUCCCCAGUGA

Biological target: GST-ZfQQR (zinc finger ZfQQR) (artificial)
Assay: filter; 25 mM Tris pH 8.0, 100 mM KCl, 20 uM ZnSO4, 2 mM DTT, poly dI-dC, room temperature; protein called zinc finger ZfQQR, GST fusion is the purified form described
Details: tags: N-terminal GST (pGEX-4T-1); label: radioactive
Protocol: To confirm that the consensus sequence obtained after five rounds of SELEX is bound by the zinc finger, a constant KD was measured using the nitrocellulose filter binding method. The assay was performed with radioactively labeled substrates described in the literature (LDNA, LRNA) and a consensus sequence (CDNA, CRNA) see FIG. 16:
Binding reaction contained 2 nM of labeled substrate, 2 μg poly dI-dC as a nonspecific competitor, 25 mM Tris pH 8.0, 100 mM KCl, 20 μM ZnSO₄, 2 mM DTT. The binding reaction was incubated for 30 min at room temperature and then filtered immediately through a nitrocellulose filter and washed with 8 volumes of reaction buffer of 25 mM Tris pH 8.0, 100 mM KCl, 20 μM ZnSO₄, 2 mM DTT. Measurement of the intensity of the signal coming from the retention of radioactively labeled substrate was made on an audioradiogram of the nitrocellulose filter using a Typhoon Trio scanner and ImageQuant TL software.

Sequence of GST-ZfQQR (zinc finger ZfQQR) (artificial) (chain, as listed by the source): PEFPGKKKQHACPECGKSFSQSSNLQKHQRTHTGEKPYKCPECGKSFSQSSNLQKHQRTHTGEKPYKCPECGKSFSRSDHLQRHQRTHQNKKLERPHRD

Row | Binder | Kd
1 | B1 | 155 nM
2 | B2 | 188 nM

Reference: patent US20140094385, “SEQUENCE-SPECIFIC ENGINEERED RIBONUCLEASE H AND THE METHOD FOR DETERMINING THE SEQUENCE PREFERENCE OF DNA-RNA HYBRID BINDING PROTEINS” (MIEDZYNARODOWY INSTYUT BIOLOGII MOLEKULARNEJ I KOMORKOWEJ, published 2014)
